# Results from patent US20150259426A1 (Novartis, published 2015).
# Changes are numbered by the printed parent chain. Read-outs that look alike come from different tables or passages of the source.
# T1: DR5-61 (human DR5 residues 61 to 183, gp67DR5l61-s183-PH) (human)
# T1 construct: expressed in SF9 cells, cleaved with PreScission protease
# T1 chain: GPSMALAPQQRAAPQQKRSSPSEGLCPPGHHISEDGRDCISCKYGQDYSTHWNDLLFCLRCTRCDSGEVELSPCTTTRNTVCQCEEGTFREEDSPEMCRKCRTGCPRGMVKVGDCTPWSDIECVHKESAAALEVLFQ
# B1: 4E6-Hu tetra (4E6 hu tetramer) (other)
# chain: EVQLLESGGGLVQPGGSLRLSCAASGRTFGSIRVGWFRQAPGKGREFVSAINRNDGTTYYADSVKGRFTISRDNSKNTVYLQMNSLRPEDTAVYYCAAGLQYNRAADRVPVGAVYWGQGTLVTVSSGGGGSGGGGSGGGGSGGGGSGGGGSGGGGSGGGGSEVQLLESGGGLVQPGGSLRLSCAASGRTFGSIRVGWFRQAPGKGREFVSAINRNDGTTYYADSVKGRFTISRDNSKNTVYLQMNSLRPEDTAVYYCAAGLQYNRAADRVPVGAVYWGQGTLVTVSSGGGGSGGGGSGGGGSGGGGSGGGGSGGGGSGGGGSEVQLLESGGGLVQPGGSLRLSCAASGRTFGSIRVGWFRQAPGKGREFVSAINRNDGTTYYADSVKGRFTISRDNSKNTVYLQMNSLRPEDTAVYYCAAGLQYNRAADRVPVGAVYWGQGTLVTVSSGGGGSGGGGSGGGGSGGGGSGGGGSGGGGSGGGGSEVQLLESGGGLVQPGGSLRLSCAASGRTFGSIRVGWFRQAPGKGREFVSAINRNDGTTYYADSVKGRFTISRDNSKNTVYLQMNSLRPEDTAVYYCAAGLQYNRAADRVPVGAVYWGQGTLVTVSS
# B2: 11H6-hu tetra (11H6 hu tetramer) (VHH)
# chain: EVQLLESGGGLVQPGGSLRLSCAASGTFDKINNMGWYRQAPGKQRDLVAQITPGGITDYADSVKGRFTISRDNSKNTLYLQMNSLRPEDTAVYYCNAEILKRAYIDVYVNYWGQGTLVTVSSGGGGSGGGGSGGGGSGGGGSGGGGSGGGGSGGGGSEVQLLESGGGLVQPGGSLRLSCAASGTFDKINNMGWYRQAPGKQRDLVAQITPGGITDYADSVKGRFTISRDNSKNTLYLQMNSLRPEDTAVYYCNAEILKRAYIDVYVNYWGQGTLVTVSSGGGGSGGGGSGGGGSGGGGSGGGGSGGGGSGGGGSEVQLLESGGGLVQPGGSLRLSCAASGTFDKINNMGWYRQAPGKQRDLVAQITPGGITDYADSVKGRFTISRDNSKNTLYLQMNSLRPEDTAVYYCNAEILKRAYIDVYVNYWGQGTLVTVSSGGGGSGGGGSGGGGSGGGGSGGGGSGGGGSGGGGSEVQLLESGGGLVQPGGSLRLSCAASGTFDKINNMGWYRQAPGKQRDLVAQITPGGITDYADSVKGRFTISRDNSKNTLYLQMNSLRPEDTAVYYCNAEILKRAYIDVYVNYWGQGTLVTVSS
# B3: 4E6 hu, pAX111-4E6 (monomeric NB construct for crystallography) (VHH)
# VHH: EVQLLESGGGLVQPGGSLRLSCAASGRTFGSIRVGWFRQAPGKGREFVSAINRNDGTTYYADSVKGRFTISRDNSKNTVYLQMNSLRPEDTAVYYCAAGLQYNRAADRVPVGAVYWGQGTLVTVSS
# B4: 4E6-hx (monovalent; humanized FR regions of 4E6-Hu with the CDR3 of 4E6), produced in E. coli (VHH)
# VHH: B3 VHH with A105S
# B5: 10F1 tetra (tetravalent anti-DR5 NB construct) (other)
# chain: EVQLVESGGGLVQPGGSLRLSCAASGFTFSRYWMYWVRQAPGKGLEWVSAINSGGGDTYYRDSVRGRFTISRDNFKNTLYLQMNSLKSEDTAVYYCAKAEGPPTFSLIRTMTVDPGAQGTQVTVSSGGGGSGGGGSGGGGSGGGGSGGGGSGGGGSGGGGSEVQLVESGGGLVQPGGSLRLSCAASGFTFSRYWMYWVRQAPGKGLEWVSAINSGGGDTYYRDSVRGRFTISRDNFKNTLYLQMNSLKSEDTAVYYCAKAEGPPTFSLIRTMTVDPGAQGTQVTVSSGGGGSGGGGSGGGGSGGGGSGGGGSGGGGSGGGGSEVQLVESGGGLVQPGGSLRLSCAASGFTFSRYWMYWVRQAPGKGLEWVSAINSGGGDTYYRDSVRGRFTISRDNFKNTLYLQMNSLKSEDTAVYYCAKAEGPPTFSLIRTMTVDPGAQGTQVTVSSGGGGSGGGGSGGGGSGGGGSGGGGSGGGGSGGGGSEVQLVESGGGLVQPGGSLRLSCAASGFTFSRYWMYWVRQAPGKGLEWVSAINSGGGDTYYRDSVRGRFTISRDNFKNTLYLQMNSLKSEDTAVYYCAKAEGPPTFSLIRTMTVDPGAQGTQVTVSS
# notes: four VHH units in one chain joined by GlySer linkers; not shown: C-terminal c-myc/His6 tag from vector pAX51
# B6: 11H6 (monomeric anti-DR5 NB construct) (VHH)
# VHH: EVQLVESGGGLVQPGGSLRLSCAASGTFDKINNMGWYRQAPGKQRDLVAQITPGGITDYADSVKGRFTISRDNAKDTMYLQMNSLKPEDTAVYFCNAEILKRAYIDVYVNYWGQGTQVTVSS
# notes: llama VHH; periplasmic extract or purified monovalent material from E. coli; also called 11H6 parent; wild type 11H6; not shown: C-terminal c-myc tag and (His)6 tag coded by the vector
# B7: 11H6 hu, pAX100-11H6 (monomeric NB construct for crystallography) (VHH)
# VHH: B6 VHH with V5L, A74S, D76N, M78L, K86R, F94Y, Q117L
# notes: the complex with DR5-54 was treated with trypsin before crystallization
# B8: 11H6-hu (monovalent humanized variant of 11H6) (VHH)
# VHH: B6 VHH with V5L, A74S, D76N, M78L, K86R, F94Y, Q117L
# notes: purified monovalent material
# What was measured:
# [1] = target: T2, cell-bound human DR5 (Colo205 and other human cell lines) (human, UniProt O14763 56-440); assay: cell-based or functional assay
# [2] = target: T2, cell-bound human DR5 (Colo205 and other …); assay: cell-based or functional assay; remark: listed apart in the source
# [3] = target: T2, cell-bound human DR5 (Colo205 and other …); assay: cell-based or functional assay; remark: listed apart in the source
# [4] = target: T1, DR5-61 (human DR5 residues 61 to 183, …); assay: complex isolated by gel filtration, then crystallized
# [5] = target: cynomolgus DR5 (construct used not stated) (cynomolgus); assay: SPR kinetics (Biacore), cynomolgus DR5
# [6] = target: T2, cell-bound human DR5 (Colo205 and other …); assay: FACS saturation binding, apparent KD, cell-bound human DR5
# [7] = target: T3, cell-bound cynomolgus DR5 (CHO-K1 cells transfected with the full length cynoDR5 gene) (cynomolgus); assay: FACS saturation binding, apparent KD, cell-bound cynomolgus DR5
# T3 construct: whole, on cells
# [8] = target: T2, cell-bound human DR5 (Colo205 and other …); assay: cell-based or functional assay; remark: listed apart in the source
# [9] = target: T4, short (182 amino acids) human DR5-Fc fusion protein (R&D Systems, catalogue #631-T2/CF) (human, UniProt O14763 56-210); assay: SPR (Biacore), CM5 chip coated with human DR5-Fc, 1 to 100 nM NB construct
# T4 construct: bought; not shown: Fc part of the bought fusion protein; not described
# [10] = target: T5, cynomolgus DR5-Fc fusion protein (cyno DR5 amino acids 56 to 213 fused with human IgG1 Fc) (cynomolgus; human); assay: SPR (Biacore), CM5 chip coated with cynomolgus DR5-Fc, 1 to 100 nM NB construct
# [11] = target: T2, cell-bound human DR5 (Colo205 and other …); assay: cell-based or functional assay; remark: listed apart in the source
# [12] = target: T5, cynomolgus DR5-Fc fusion protein (cyno …); assay: ELISA, periplasmic extract, plate coated with cynomolgus DR5-Fc, anti-myc detection
# [13] = target: T3, cell-bound cynomolgus DR5 (CHO-K1 cells …); assay: FACS, periplasmic extract on CHO-K1 cells expressing cynomolgus DR5, anti-myc detection
# [14] = target: cynomolgus DR5 (construct used not stated) (cynomolgus); assay: SPR kinetics, cynomolgus DR5
# [15] = target: T2, cell-bound human DR5 (Colo205 and other …); assay: FACS, periplasmic extract on Colo205 cells, anti-myc detection
# [16] = target: T6, DR5-54 (human DR5 residues 54 to 183, gp67DR5a54-s183-PH) (human, UniProt O14763 54-183); assay: complex isolated by gel filtration, then crystallized
# T6 construct: expressed in SF9 cells, cleaved with PreScission protease; the complex with 11H6 was treated with trypsin before crystallization
binder,measurement,setting,value
B1,"IC50, cell survival, Colo205",[1],0.012 nM
same,"IC50, cell survival, Jurkat",[1],0.0026 nM
same,"IC50, cell survival, A549",[2],> 10 nM
same,"IC50, cell survival, BxPC-3",[2],0.0292 nM
same,"IC50, cell survival, Colo205",[2],0.0034 nM
same,"IC50, cell survival, H226",[2],0.129 nM
same,"IC50, cell survival, H2122",[2],0.0051 nM
same,"IC50, cell survival, Jurkat (72)",[2],0.0172 nM
same,"IC50, cell survival, M30",[2],> 10 nM
same,"IC50, cell survival, MiaPaCa-2",[2],0.0185 nM
same,"IC50, cell survival, Panc-1",[2],0.229 nM
same,"IC50, cell survival, T24",[2],0.0447 nM
B2,"IC50, cell survival, A549",[2],> 10 nM
same,"IC50, cell survival, BxPC-3",[2],0.0154 nM
same,"IC50, cell survival, Colo205",[2],0.0036 nM
same,"IC50, cell survival, H226",[2],0.172 nM
same,"IC50, cell survival, H2122",[2],0.0041 nM
same,"IC50, cell survival, Jurkat (72)",[2],0.0007 nM
same,"IC50, cell survival, M30",[2],> 10 nM
same,"IC50, cell survival, MiaPaCa-2",[2],0.0117 nM
same,"IC50, cell survival, Panc-1",[2],0.232 nM
same,"IC50, cell survival, T24",[2],0.0222 nM
same,"IC50, cell survival, Colo205",[3],0.02 nM
same,"IC50, cell survival, Jurkat",[3],0.016 nM
B3,binding result,[4],binds
B4,Kd,[5],3.4 nM
same,Kd,[6],0.34 nM
same,Kd,[7],7.1 nM
B5,"IC50, cell survival, 184A1",[8],≥ 20 nM
same,"IC50, cell survival, A549",[8],≥ 20 nM
same,"IC50, cell survival, ARPE-19",[8],≥ 20 nM
same,"IC50, cell survival, BxPC-3",[8],0.003 nM
same,"IC50, cell survival, Colo205",[8],0.002 nM
same,"IC50, cell survival, H226",[8],0.024 nM
same,"IC50, cell survival, H2052",[8],0.004 nM
same,"IC50, cell survival, H2122",[8],0.001 nM
same,"IC50, cell survival, HAAE-1",[8],≥ 20 nM
same,"IC50, cell survival, Huvec",[8],≥ 20 nM
same,"IC50, cell survival, Jurkat",[8],0.003 nM
same,"IC50, cell survival, M30",[8],≥ 20 nM
same,"IC50, cell survival, Malme-3",[8],≥ 20 nM
same,"IC50, cell survival, MiaPaCa-2",[8],0.028 nM
same,"IC50, cell survival, Molt4",[8],0.002 nM
same,"IC50, cell survival, Panc-1",[8],0.009 nM
same,"IC50, cell survival, WI-38",[8],≥ 20 nM
same,Kd,[9],0.0039 nM
same,Kd,[10],0.022 nM
same,"EC50, caspase 3/7 in Colo205 tumor after a single dose in mice, indirect response model",[11],0.365 ng/mg tissue
B6,ABS405 nm,[12],0.133 ABS405 nm
same,mean count fluorescence,[13],292
same,Kd,[10],9200 nM
same,Kd,[14],320 nM
same,mean count fluorescence,[15],723
B7,binding result,[16],binds
B8,Kd,[14],170 nM
